Measured values taken from the supplement of paper PMC9170038.

Test system: MS2 coat protein
Assay: apparent KD of MS2 coat protein; designed switch direction (-1 OFF switch, 1 ON switch): -1; higher = weaker reporter binding
Outline: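 RNA switches sharing common flanks were transcribed by stalled E. coli RNA polymerase on Illumina chips. A doubling series of SNAP-549-labelled MS2 coat protein, from 0.7 or 1.5 nM to 3 µM, was applied in Tris-HCl pH 7.5 buffer with KCl, MgCl2, BSA, DTT, tRNA and Tween-20. Each step lasted 0.8–1.5 h at the bottom of the series and 10–20 min at the top. Normalised cluster fluorescence was curve-fitted, giving apparent KD as the per-design median over clusters.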

[1] = Eterna round: R95, input ligand: FMN 200 uM
[2] = Eterna round: R95, input ligand: microRNA oligo, concentration not stated
[3] = Eterna round: R95, input ligand: none
[4] = input ligand: microRNA oligo, concentration not stated

Sequence	apparent KD of MS2 coat protein [1] [nM]	apparent KD of MS2 coat protein [2] [nM]	apparent KD of MS2 coat protein [3] [nM]	apparent KD of MS2 coat protein (input ligand: FMN 200 uM) [nM]	apparent KD of MS2 coat protein [4] [nM]	apparent KD of MS2 coat protein (input ligand: none) [nM]
UUUAAUUUUUUUUUUUUACAAGCUUUUUGCUCGUCUUAUACAUGAGGAUCACCCAUGUGGGUGGAAGAUAAAUUAUC [JMF 12] (puzzle: Sensor v3, turn-off variant 2)	113	75.1	134			
GGGUGACAGUUAGGAUAUCUUAGCACGCCGUAGAGAGAAGGGACAUGAGGAUCACCCAUGUUGUAGUGCCUCAAACACUGCUAG [Beintitian] (Eterna round: R96, puzzle: Exclusion NG 1)				45.7	31.9	48.3
UGGUAACAUGAGGAUCACCCAUGUCAGGAUAUCAGGAAGAGGAGAGGAGAGGAGAAGAUGAGAAGGGACUAUAU [Excluse me! 12 - Jieux - Exclusion 1] (puzzle: Exclusion 1)		19.8				
GGACAGUCAGGAUAUACAUGAGGAUCACCCAUGUUGAGAUGUGAAAGGGCGGGAGUAGGUAGAAGGGACGAGAG [JR_Exclu3_Sub040] (puzzle: Exclusion 3)		23.2				
UAUUAGCAAGCAUGAUCCCACAUGAGGAUCACCCAUGUGCUCGUCUUAUAAGGUACUGUGACGAAAGUCACGGUACC [Sensor 3, v1 - 97] (puzzle: Sensor v3, turn-off variant 1)	195	89.4	218			
UAAGAUUACCGAGGAUAUGGUAAUUUUUGUUAACCAGAAGGCGGACUCAACAUGAGGAUCACCCAUGUAUAAAGGGUAUUAGUU [JR_ExcNG1_Sub040] (Eterna round: R96, puzzle: Exclusion NG 1)				100	74.2	96.4
AUUAAUUGUCAGAUGGGUGACAUGAGGAUCACCCAUGUCACAAGCUUUUUGUUCGUCUUAUAAUUAACCCAUCUGAC [Stov1/11-B2] (Eterna round: R97, puzzle: Sensor, turn-off variant 1)				13.8		14.4
AGUUGUUGUUUCCGUUCUUACAUGAGGAUCACCCAUGUUUCUUGUCGUGCUCGCGUUGCUCGUCUGGCUGCCUGUUG [salish99_TOv1_r3_069] (Eterna round: R96, puzzle: Sensor v3, turn-off variant 1)				47	28	46.4
AGAUGCUCAAGUCGACAUGAGGAUCACCCAUGUACAGUUAAUGAGGAUAUCCGAGAUAAAUAAUAGGAGAAGGCGUGAACAUGA [Ex NG3 #8] (Eterna round: R96, puzzle: Exclusion NG 3)				72.4	50.6	94.1
GGUCCACAUGAGGAUCACCCAUGUUAGGAUAUCUCCCGCCUCCUCACUAGAGGCGGACAGAGAAGGAACAUCAA [Raerge] (puzzle: Exclusion 1)		23.2				
CCAAGCUGUGUGAGGAUAUGCUGAACCUUGGUUCAGCAGAAGGCACAUGAGGAUCACCCAUGUGAAAAGCUUGG [Mat - Exclusion 4 - JL Mod - D95] (puzzle: Brourd's mod of Exclusion 4)		15.3				
UCGGAUUCAGGAUAUUGCACAUGUGACAUGAGGAUCACCCAUGUUCCCUUAUUUGGUCACCAAGAAGGGAGUUUAU [Eternabot (L2) Solution 34] (Eterna round: R97, puzzle: Exclusion 5)				157		152
GCAGCUAAGUGUAAUAACACAAUACAUGAGGAUCACCCAUGUGAGGAUAUGGACUGGAUUACAGUCCAGAAGGCACAAUGCUGC [Zipper Style 4] (Eterna round: R96, puzzle: Exclusion NG 3)				17.2	16.2	20.9
AGGUGUAGAGGAUAUCUAUCCUCGCACAUGAGGAUCACCCAUGUCCUGGUCACCAAGGACGGAGAAGGCUACACCA [Omei Ex5 D20] (Eterna round: R97, puzzle: Exclusion 5)				427		773
CAGUAGGCAGGAUAUACAUGAGGAUCACCCAUGUGAUUUAGUGCACGCGUACGUGUACGUAGAAGGGCCUACUG [JL 3.27 m7] (Eterna round: R97, puzzle: Exclusion 3)				91.8		17.9
AGUAACUAUCACGAAAGUGAUAGUUACACAAGCAGUGAAACAUGAGGAUCACCCAUGUCCUCAUUUGCUCGUCUUAU [Sensor 3 - 25] (puzzle: Sensor v3, turn-off variant 2)	53.1	390	52.2			
GGAGAGAUAUAGGAUAUGGGAGGGAGGACCGGACCAGAAGGAUAGACAUGAGGAUCACCCAUGUAGAGAUCCUC [AK-MS2ROC-r4-exclusion6-6.1] (Eterna round: R97, puzzle: Exclusion 6)				302		270

Sequence	apparent KD of MS2 coat protein [1] [nM]	apparent KD of MS2 coat protein [2] [nM]	apparent KD of MS2 coat protein [3] [nM]	apparent KD of MS2 coat protein (input ligand: FMN 200 uM) [nM]	apparent KD of MS2 coat protein [4] [nM]	apparent KD of MS2 coat protein (input ligand: none) [nM]
CCACAUGCAGGAUAUGUAAAAUUUGACAUGAGGAUCACCCAUGUAGAUCCUGAAUUUCCUGCAGAAGGGCAUGUGG [Mat - Exclusion 5 - Eli Mod - D19] (Eterna round: R97, puzzle: Exclusion 5)				605		149
CCUCCCGCCGUCAGGAUAUGCCGUACCGCUGCGCUACAGAAGGCACUUGAGGAUCACCCAAGUACCCGUGAGGC [salish99_bmod_ex4_r4_010] (Eterna round: R97, puzzle: Brourd's mod of Exclusion 4)				16.5		15.7
AGAUUAAUAGUAAGGAUAUGAUGCAGGAAACUGCGUCAGAAGGUACAUGAGGAUCACCCAUGUUAAACUAAUUU [Explosion 7 - Jieux - Brourd's mod of Exclusion 4] (Eterna round: R97, puzzle: Brourd's mod of Exclusion 4)				17.4		15
UCAUGGUAGCAGGAUAUGCUUGUUUAAUUUUUUGCAGAAGGGCUAACAUGAGGAUCACCCAUGUGAGAGGUCUA [JR_E6_Sub065] (puzzle: Exclusion 6)	31	64.3	144			
CUAAGUUGGUAAGGAUAUCCUACAUUAUUCUGACCCGUGCAAGCUACAUGAGGAUCACCCAUGUGGGAGAAGGUGCGUUAAUGU [Design 5] (Eterna round: R96, puzzle: Exclusion NG 2)				16.3	13.8	20.3
GAUUAUGCGAGCUUUAGGGACAUGAGGAUCACCCAUGUUCGUCUUAUUGGUCUAGAUGCACUAACAUACCUAAAUCU [JMF 26] (puzzle: Sensor v3, turn-off variant 1)	18	24.4	18.2			
AUUACGUCAGGAUAUGCGUGUUAGACAUGUUUAACCUAAGAACAUGAGGAUCACCCAUGUAGAAGGGACGCUCA [Eternabot (L1) Solution 78] (Eterna round: R97, puzzle: Exclusion 2)				68.9		64.9
GGCAUCGGAGGAUAUACUUAAGGUGAUGUUCGAAGCUUUCUACUUGAGGAUCACCCAAGUAGAAGGCCGAUGCC [jl-ex2.4.77 ViennaUCT mod] (Eterna round: R97, puzzle: Exclusion 2)				7.63		19.6
GCCGAAAGUGUGAGGAUAUACCUAUGGAAACAUAGGUAGAAGGCACAUGAGGAUCACCCAUGUGGGAAAACGGC [Mat - Exclusion 4 - Eli Mod - D29] (Eterna round: R97, puzzle: Brourd's mod of Exclusion 4)				322		152
UCCUGGCGAGGAUAUACAAAGAUUUUUUCGUUUUGUUUCGAACAUGAGGAUCACCCAUGUAGAAGGUGCUGCUG [JR_Ex2_Sub015] (Eterna round: R97, puzzle: Exclusion 2)				46.4		46.7
GGAUCGAAUGUGAGGAUAUGCUGGUCCUUGGAUCAGCAGAAGGCACAUGAGGAUCACCCAUGUGAUAUCGAUCC [Eli bmx4 4.71] (Eterna round: R97, puzzle: Brourd's mod of Exclusion 4)				443		89.2
GUGUACAGAGGAUAUAUAUGAGCUAGGAAACUAGCAAACUCACAUGAGGAUCACCCAUGUAGAAGGCUGUACAC [Ex2: 722] (Eterna round: R96, puzzle: Exclusion 2)				220	22.4	26.9
CAGGUCUGAAAGGAUAUCCACGCCUGCGGGCCAGGAGAAGGUUCGACUUGAGGAUCACCCAAGUGCCGAGUCCA [Ervezaar] (Eterna round: R97, puzzle: Exclusion 6)				33.2		20.6
GGGCCCGGAGGAUAUACAAUCCCGGGUUGAAAGGCCCGGGUACAUGAGGAUCACCCAUGUAGAAGGCCGGGCCC [-42.3, -39.6 kcal A 24%, 5c bis,0] (Eterna round: R97, puzzle: Exclusion 2)				20.9		13.8
GCCGUCAGUGUGAGGAUAUGCCUAUGGAUACGUAGGCAGAAGGCACAUGAGGAUCACCCAUGUCCAAAGACGGC [JL-BMX4-4.30 Eli mod] (Eterna round: R97, puzzle: Brourd's mod of Exclusion 4)				520		181
AUCAGCUCGUCAGGAUAUACAUGAGGAUCACCCAUGUGGUCAUUAGCAGCUUCGGCUGCAUUAAUGUAGAAGGGACGAGCUGAU [ENG2/8-B2] (Eterna round: R96, puzzle: Exclusion NG 2)				544	522	502
GUAAAGUGAGGAUAUGGUAAUUUAAUUAUUAAUUAAUUAAUCCAGAAGGCACAUGAGGAUCACCCAUGUAAAGG [Mat - Exclusion 4 - D93] (puzzle: Exclusion 4)		34.6				
